# Test results reported in article PMC6765115.
# Positions count from the first letter of the chain named. Like-named read-outs stand apart in the source and are kept apart here.
# T1: C.Csp231I C-ARQ (Cmut) (Citrobacter sp. (Csp231I R-M system), UniProt Q32WH4 1-98, A33G;R34E;Q37A)
# T1 sequence: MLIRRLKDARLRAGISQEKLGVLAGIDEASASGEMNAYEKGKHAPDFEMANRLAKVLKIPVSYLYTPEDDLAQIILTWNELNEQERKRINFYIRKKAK
# T2: C.Csp231I (C protein, WT) (Citrobacter sp. (Csp231I R-M system), UniProt Q32WH4 1-98)
# T2 sequence: T1 sequence with G33A, E34R, A37Q
# B1: racR (176 bp) (dsDNA)
# DNA 1: GCGACGCCTAACGCAATTGTCAATAGGCTGTGCCTAATGCAGTAAGGGTAGGGATTGCCTAATGTAATGCGCATAGGAGAATATTAAGCAATGCTTAGTGGTAAAGACTTAGGCCGAGCGATAGAGCAGGCCATTAACAAAAAAATCGCATCGGGATCCGTCAAATCAAAGGCGG
# DNA 2: CCGCCTTTGATTTGACGGATCCCGATGCGATTTTTTTGTTAATGGCCTGCTCTATCGCTCGGCCTAAGTCTTTACCACTAAGCATTGCTTAATATTCTCCTATGCGCATTACATTAGGCAATCCCTACCCTTACTGCATTAGGCACAGCCTATTGACAATTGCGTTAGGCGTCGC
# B2: racRmut (176 bp) (dsDNA)
# DNA 1: B1 DNA 1 with T95G, T96C, G98T
# DNA 2: B1 DNA 2 with C78A, A80G, A81C
# Experiments:
# Assay in all cases: EMSA
# C.Csp231I C-ARQ (Cmut) = molecular target: T1, C.Csp231I C-ARQ (Cmut)
# [1] = molecular target: T2, C.Csp231I (C protein, WT)
# [2] = molecular target: T2, C.Csp231I (C protein, WT); remark: listed apart in the source
Binder,binding result (C.Csp231I C-ARQ (Cmut)),binding result [1],binding result [2]
B1,no binding,binds,
B2,no binding,,no binding
